From US20100041597A1 (published 2010)

T1: PKC-ζ (purified isoform) (Homo sapiens (Human), UniProt Q05513 1-592)
T1 construct: also called PKC-zeta; PKCzeta
T1 sequence: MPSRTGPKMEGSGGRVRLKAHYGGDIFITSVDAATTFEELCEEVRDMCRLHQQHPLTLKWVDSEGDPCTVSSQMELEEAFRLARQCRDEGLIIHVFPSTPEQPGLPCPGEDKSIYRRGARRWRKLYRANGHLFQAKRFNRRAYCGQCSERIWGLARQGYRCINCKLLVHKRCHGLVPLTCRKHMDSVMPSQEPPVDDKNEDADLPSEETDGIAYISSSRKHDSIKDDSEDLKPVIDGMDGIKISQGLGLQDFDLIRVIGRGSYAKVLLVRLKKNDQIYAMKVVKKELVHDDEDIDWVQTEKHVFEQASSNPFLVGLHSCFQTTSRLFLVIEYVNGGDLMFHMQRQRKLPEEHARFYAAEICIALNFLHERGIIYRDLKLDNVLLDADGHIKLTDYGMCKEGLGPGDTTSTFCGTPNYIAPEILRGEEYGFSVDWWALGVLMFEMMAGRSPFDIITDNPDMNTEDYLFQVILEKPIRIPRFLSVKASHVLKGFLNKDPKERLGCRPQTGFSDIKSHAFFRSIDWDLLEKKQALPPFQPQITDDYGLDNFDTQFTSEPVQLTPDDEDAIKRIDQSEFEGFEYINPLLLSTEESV


Experiments:
[1] = molecular target: T2, PKC-βI (purified isoform) (Homo sapiens (Human), UniProt P05771 2-671); assay: competitive ELISA on purified PKC-βI vs anti-PKC-βI Ab; PRE 50 µM
T2 construct: also called PKC-beta I
T2 sequence (P05771 2-671 limits assumed): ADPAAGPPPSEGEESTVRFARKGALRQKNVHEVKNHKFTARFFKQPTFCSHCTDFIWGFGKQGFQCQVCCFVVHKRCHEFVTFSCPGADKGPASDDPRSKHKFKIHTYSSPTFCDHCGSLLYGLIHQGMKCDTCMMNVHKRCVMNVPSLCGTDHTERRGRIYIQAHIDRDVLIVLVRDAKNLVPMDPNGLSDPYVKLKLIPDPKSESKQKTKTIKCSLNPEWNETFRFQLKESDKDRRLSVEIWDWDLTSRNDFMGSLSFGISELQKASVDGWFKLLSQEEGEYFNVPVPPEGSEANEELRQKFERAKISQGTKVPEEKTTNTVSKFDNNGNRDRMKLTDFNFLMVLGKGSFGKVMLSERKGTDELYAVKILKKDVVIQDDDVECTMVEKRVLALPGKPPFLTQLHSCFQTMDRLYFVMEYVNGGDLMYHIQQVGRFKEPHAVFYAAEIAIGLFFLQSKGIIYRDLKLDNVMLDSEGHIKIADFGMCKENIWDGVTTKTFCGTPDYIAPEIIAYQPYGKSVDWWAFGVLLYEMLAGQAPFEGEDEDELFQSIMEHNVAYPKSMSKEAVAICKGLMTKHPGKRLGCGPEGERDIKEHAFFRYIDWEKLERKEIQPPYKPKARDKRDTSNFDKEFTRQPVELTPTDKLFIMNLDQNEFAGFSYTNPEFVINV
Experimental: (§1) Greiner 96 well ELISA plates were coated with the appropriate PKC isoform diluted in PBSN (PBS with Calcium/Magnesium+0.05% Sodium azide w/w). 50 μL/well at 250 ng/mL was used. Control wells contained PBSN only. Plates were incubated overnight at 4° C.
(§2) The plates were washed 3 times with 200 μL of dH₂O per well, then 100 μL of blocking solution was added per well and the plate incubated for 1 h at 37° C. The washing steps with dH₂O were repeated and 50 μL of the appropriate PRE solution (PRE stock solution [20 mM in DMSO] diluted in PBSN) was added and the plate incubated for 1 h at room temperature.
(§3) 50 μL of 1:1000 dilution of Alkaline Phosphatase (AP) conjugated antibody (anti-rabbit for all except zeta, which was anti-goat) was then added and the plate incubated for 1 h at room temperature. Washing with dH₂O was then repeated. Finally, 100 μL of pNPP solution in pNPP buffer (2 mM MgCl₂, 100 mM Sodium bicarbonate in water, pH 9.8) was added to all wells and incubated for 8 minutes for α, βI, βII ε, and ζ, or for 15-20 mins for […] (until sufficient coloration is observed). The reaction was stopped by addition of Stop solution (2N NaOH) and the absorbance at 405 nm was read on a Galaxy Plate reader.

[2] = molecular target: T2, PKC-βI (purified isoform); assay: competitive ELISA on purified PKC-βI vs anti-PKC-βI Ab; PRE 200 µM
Experimental: as §1, §2, §3

PKC-δ (purified isoform) [3] = molecular target: T3, PKC-δ (purified isoform) (Homo sapiens (Human), UniProt Q05655 1-676); assay: competitive ELISA on purified PKC-δ vs anti-PKC-δ Ab; PRE 100 µM
T3 construct: also called PKC-delta; PKCdelta
T3 sequence (Q05655 whole entry, stated change not applied, canonical isoform): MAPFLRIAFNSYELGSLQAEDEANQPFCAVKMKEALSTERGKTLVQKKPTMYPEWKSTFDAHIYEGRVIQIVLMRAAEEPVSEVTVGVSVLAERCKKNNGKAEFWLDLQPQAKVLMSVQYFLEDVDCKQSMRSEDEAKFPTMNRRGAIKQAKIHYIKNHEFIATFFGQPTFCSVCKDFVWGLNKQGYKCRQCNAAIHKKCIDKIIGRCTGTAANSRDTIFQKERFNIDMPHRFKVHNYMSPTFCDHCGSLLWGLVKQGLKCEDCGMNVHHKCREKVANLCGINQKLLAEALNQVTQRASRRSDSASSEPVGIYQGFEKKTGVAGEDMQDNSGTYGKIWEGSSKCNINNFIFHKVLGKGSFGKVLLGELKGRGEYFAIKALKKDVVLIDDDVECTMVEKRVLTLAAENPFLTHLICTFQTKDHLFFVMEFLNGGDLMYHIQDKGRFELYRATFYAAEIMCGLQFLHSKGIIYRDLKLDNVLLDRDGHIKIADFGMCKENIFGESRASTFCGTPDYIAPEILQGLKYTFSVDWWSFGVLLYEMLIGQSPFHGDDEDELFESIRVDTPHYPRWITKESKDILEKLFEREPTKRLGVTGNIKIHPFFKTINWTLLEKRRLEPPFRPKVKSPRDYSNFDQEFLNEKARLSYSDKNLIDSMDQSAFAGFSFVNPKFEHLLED
Experimental: as §1, §2, §3

PKC-ζ (purified isoform) [4] = molecular target: T1, PKC-ζ (purified isoform); assay: competitive ELISA on purified PKC-ζ vs anti-PKC-ζ Ab; PRE 100 µM
Experimental: as §1, §2, §3

PKC-ζ (purified isoform) [5] = molecular target: T1, PKC-ζ (purified isoform); assay: competitive ELISA on purified PKC-ζ vs anti-PKC-ζ Ab; PRE 200 µM
Experimental: as §1, §2, §3

[6] = molecular target: T4, PKC-βII (purified isoform) (Homo sapiens (Human), UniProt P05771 2-621); assay: competitive ELISA on purified PKC-βII vs anti-PKC-βII Ab; PRE 200 µM
T4 construct: also called PKC-beta II
T4 sequence (P05771 other isoform, or with tags, fused parts or gaps limits assumed): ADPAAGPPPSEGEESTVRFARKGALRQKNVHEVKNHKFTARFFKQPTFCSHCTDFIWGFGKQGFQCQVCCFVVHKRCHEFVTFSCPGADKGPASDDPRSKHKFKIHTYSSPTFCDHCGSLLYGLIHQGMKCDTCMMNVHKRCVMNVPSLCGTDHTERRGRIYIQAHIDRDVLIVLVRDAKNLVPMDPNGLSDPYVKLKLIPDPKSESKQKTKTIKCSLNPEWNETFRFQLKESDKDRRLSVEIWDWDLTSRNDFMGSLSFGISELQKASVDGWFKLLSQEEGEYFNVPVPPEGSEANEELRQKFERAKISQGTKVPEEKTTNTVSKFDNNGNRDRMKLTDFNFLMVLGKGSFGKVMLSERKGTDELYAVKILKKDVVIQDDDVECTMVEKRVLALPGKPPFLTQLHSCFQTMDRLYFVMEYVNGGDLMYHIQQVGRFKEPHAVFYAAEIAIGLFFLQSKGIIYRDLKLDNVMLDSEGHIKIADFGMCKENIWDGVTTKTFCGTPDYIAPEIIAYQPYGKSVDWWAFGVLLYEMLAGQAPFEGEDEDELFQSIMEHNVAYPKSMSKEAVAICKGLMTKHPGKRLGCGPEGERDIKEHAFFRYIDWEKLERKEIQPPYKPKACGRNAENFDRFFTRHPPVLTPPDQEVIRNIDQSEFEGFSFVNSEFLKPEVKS
Experimental: as §1, §2, §3

PKC-δ (purified isoform) [7] = molecular target: T3, PKC-δ (purified isoform); assay: competitive ELISA on purified PKC-δ vs anti-PKC-δ Ab; PRE 50 µM
Experimental: as §1, §2, §3

PKC-δ (purified isoform) [8] = molecular target: T3, PKC-δ (purified isoform); assay: competitive ELISA on purified PKC-δ vs anti-PKC-δ Ab; PRE 200 µM
Experimental: as §1, §2, §3

[9] = molecular target: T5, PKC-α (endogenous, human cell lysates and cells) (human, UniProt P17252 2-672); assay: anti-PKC-α immunofluorescence, V5E-transfected IMR-32 cells loaded with PRE (label on PKC-α and V5E); control with endocytosis reagent 113
T5 construct: Endogenous protein of human cell lysates, on Western blot membranes (denatured) or in fixed cells; also called PKC-alpha; PKC-A
Source text: Neuroblastoma cells from the IMR-32 cell line were stably transfected with a vector containing the V5E sequence of PKC-α as outlined above in Example 13. The V5E sequence is part of the antigenic amino acid sequence that is used to raise the commercially available anti-PKC-α isoform-specific antibody.
The peptides PRE 1, 2, 3, 4, 5, 6, 7, 8, 9, 10, 11, 12 and 13 (see Table 3) were incorporated into the transfected IMR-32 cells via pinocytic endocytosis (Molecular Probes) according to the supplier's recommendations. Following fixation and permeabilization, PKC-α was detected using an Alexa fluor secondary antibody (as described above in Example 8).

[10] = molecular target: T2, PKC-βI (purified isoform); assay: competitive ELISA on purified PKC-βI vs anti-PKC-βI Ab; PRE 100 µM
Experimental: as §1, §2, §3

PKC-ζ (purified isoform) [11] = molecular target: T1, PKC-ζ (purified isoform); assay: competitive ELISA on purified PKC-ζ vs anti-PKC-ζ Ab; PRE 50 µM
Experimental: as §1, §2, §3

Row | Binder | binding capacity (%) [1] | binding capacity (%) [2] | binding capacity (%) (PKC-δ (purified isoform) [3]) | binding capacity (%) (PKC-ζ (purified isoform) [4]) | binding capacity (%) (PKC-ζ (purified isoform) [5]) | binding capacity (%) [6] | binding capacity (%) (PKC-δ (purified isoform) [7]) | binding capacity (%) (PKC-δ (purified isoform) [8]) | Relative Fluorescence Intensity [9] | binding capacity (%) [10] | binding capacity (%) (PKC-ζ (purified isoform) [11])
1 | Ac-KDAQNLIGISI-NH2 (Synthetic peptide; also called peptide PRE 4) [PRE 4] | 6.02% | 7.46% | 30.7% | 0% | 5.85% | 1.18% | 29.2% | 17.3% | 79 | 15.7% | 0%
2 | Ac-KDAQNLI-NH2 (Synthetic peptide; also called peptide PRE 12; Ac-KDAQNLI-NH2) [PRE 12] | 0.79% | 0% | 1.02% | – | – | – | 2.26% | 23.5% | 124 | 0% | –
3 | Ac-ISIGILQNADK-NH2 (Synthetic peptide (retro form of PRE 4); also called peptide PRE 7) [PRE 7] | 2.1% | 0% | 0% | 0% | 1.54% | – | 3.06% | 0% | 75 | 0% | 1.83%

Other lines, results leading:

Row | binding capacity (%) [1] | binding capacity (%) [2] | binding capacity (%) (PKC-δ (purified isoform) [3]) | binding capacity (%) (PKC-ζ (purified isoform) [4]) | binding capacity (%) (PKC-ζ (purified isoform) [5]) | binding capacity (%) [6] | binding capacity (%) (PKC-δ (purified isoform) [7]) | binding capacity (%) (PKC-δ (purified isoform) [8]) | Relative Fluorescence Intensity [9] | binding capacity (%) [10] | binding capacity (%) (PKC-ζ (purified isoform) [11]) | Binder
4 | 0% | 6.14% | 13.2% | 0% | 0% | 0% | 17.5% | 14% | 73 | 7.93% | 0% | Ac-KDANQLIGISI-NH2 (Synthetic peptide; also called peptide PRE 6) [PRE 6]
5 | – | – | 21.5% | 0% | 0% | – | 34.1% | 18.7% | 131 | – | 0% | Ac-RDAQNLIGISI-NH2 (Synthetic peptide; also called peptide PRE 11) [PRE 11]
6 | 0% | 0% | 0.79% | 0% | 4.29% | 0% | 0% | 17.9% | – | 0% | 0% | Ac-RDAQNLI-NH2 (Synthetic peptide; also called peptide PRE 13; Ac-RDAQNLI-NH2) [PRE 13]
7 | 26% | 23% | 56% | 23.9% | 29.1% | – | 48.3% | 57% | 83 | 22.5% | 14% | Ac-AKGIQEVKGGDAQNLIGISI-NH2 (Synthetic peptide; also called peptide PRE 3) [PRE 3]
